Measurements: the supplement of paper PMC9732359
± gives the uncertainty stated by the source.

Experiment: protein stability index of a GFP-peptide fusion (yeast GPS) (PSI 1-4); higher = more stable; sorted into four equal gates, so the index is relative within each strain
Outline: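 Tiled yeast protein peptides of 17 residues were each joined downstream of GFP, on plasmids that also express Cherry. The pooled library was maintained in yeast, and mid-log cultures in leucine-free medium were sorted into four equal gates on the GFP/Cherry ratio. Plasmids from every gate were amplified by PCR and sequenced on Illumina, with barcodes linking reads to strains. The protein stability index of a peptide is its gate-number-weighted read frequency summed over the gates.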

Row | Sequence | protein stability index (doa10∆) | protein stability index (pdr5∆) | protein stability index (san1∆) | protein stability index (ubr1∆)
1 | KVAEVKKLEGTIEYQKL [RPT4] | 3.13 ± 0.12 | 3.16 ± 0.11 | 3.17 ± 0.074 | 3.57 ± 0.082
2 | IPMDFIRNVLVTVDQYV [SSN2] | 1.13 ± 0.047 | 1.58 ± 0.056 | 1.33 ± 0.091 | 1.63 ± 0.06
3 | RKFKSRRCDDMLYYIQN [POP4] | 2.74 ± 0.069 | 2.98 ± 0.088 | 2.81 ± 0.062 | 2.85 ± 0.048
4 | PAWRVWLNFLRGTIPLL [PRP8] | 2.38 ± 0.089 | 1.88 ± 0.071 | 1.33 ± 0.1 | 2.96 ± 0.083
5 | GYCDDIAAMVAQKCGWT [SIR2] | 1.76 ± 0.11 | 1.9 ± 0.094 | 2.44 ± 0.16 | 1.74 ± 0.052
6 | TLSPNVTDSSLLKLLTR [GRR1] | 2.89 ± 0.062 | 2.99 ± 0.07 | 2.83 ± 0.043 | 2.82 ± 0.042
7 | LLISYGVSIENENKVII [SRB4] | 2.1 ± 0.096 | 2.36 ± 0.14 | 3.13 ± 0.092 | 2.93 ± 0.12
8 | LLIISCIIFITFEFINI [YML031W/NDC1] | 1.29 ± 0.038 | 1.43 ± 0.038 | 1.28 ± 0.079 | 1.28 ± 0.029
9 | SENEDTKDLLSKSPSEW [CSE2] | 3.21 ± 0.067 | 3.11 ± 0.067 | 3.15 ± 0.051 | 3.19 ± 0.046
10 | EGDASPFTDITVEGISK [RPB2] | 3.17 ± 0.14 | 2.97 ± 0.17 | 3.08 ± 0.092 | 3.07 ± 0.21
11 | LVLYDAENDVIEATDLG [BRR2] | 3.29 ± 0.13 | 3.26 ± 0.12 | 3.45 ± 0.092 | 3.24 ± 0.066
12 | RENGKGGQIAHILFQNN [ROX3] | 1.88 ± 0.062 | 2.32 ± 0.06 | 2.75 ± 0.061 | 2.48 ± 0.12
13 | EEEATMTTSAVSPTVGK [YIL149C/MLP2] | 3.25 ± 0.046 | 3.3 ± 0.037 | 3.229 ± 0.029 | 3.2 ± 0.035
14 | VVEKEKIESLAGGGESD [UBP6] | 3.35 ± 0.2 | 2.84 ± 0.24 | 2.89 ± 0.19 | 3.34 ± 0.15
15 | MENILQRCKSNAISLQL [YIL149C/MLP2] | 1.9 ± 0.046 | 2 ± 0.048 | 2.05 ± 0.071 | 1.57 ± 0.046
16 | KRSGHRTAPKSDNVYLK [RPL18A] | 2.85 ± 0.12 | 2.68 ± 0.095 | 2.69 ± 0.12 | 2.61 ± 0.077
17 | SQSKGTVWSANFEYDLS [YOR098C/NUP1] | – | 3.35 ± 0.15 | 2.69 ± 0.28 | 3.38 ± 0.12
18 | SDERAKLELINRYAYVL [LRP1] | 2.55 ± 0.067 | 3.17 ± 0.16 | 2.79 ± 0.11 | 2.93 ± 0.15
19 | EKACQVLKYMLLSKIML [RPN6] | 1.76 ± 0.049 | 1.49 ± 0.048 | 1.13 ± 0.1 | 1.41 ± 0.031
20 | DITGIRDVSDDVFDTLA [GRR1] | 3.02 ± 0.12 | 3.04 ± 0.07 | 2.95 ± 0.075 | 2.97 ± 0.067
21 | TMMTVEEKPDVTYSDVG [RPT1] | 2.58 ± 0.1 | 2.42 ± 0.068 | 1.83 ± 0.14 | 2.3 ± 0.055
22 | SSLFNNSTNSNTTKPAF [YJL041W/NSP1] | 2.45 ± 0.054 | 2.15 ± 0.049 | 2.61 ± 0.042 | 2.06 ± 0.037
23 | VDFEKFETFLVDVNNKF [SIN4] | 3.23 ± 0.07 | 3.34 ± 0.059 | 3.51 ± 0.037 | 3.31 ± 0.052
24 | NYNRIAKICALLFFNFS [NUT1] | 1.89 ± 0.048 | 1.8 ± 0.047 | 1.37 ± 0.082 | 1.61 ± 0.031
25 | QNSANNNSDDEDVDDEE [IRR1] | 3.28 ± 0.14 | 3.22 ± 0.15 | 3.62 ± 0.087 | 3.34 ± 0.1
26 | NYKQLTLVGGGAKITPE [RRP43] | 1.86 ± 0.11 | 1.94 ± 0.11 | 2.22 ± 0.18 | 2.01 ± 0.15
